Tests used:
human B7-H4 on cells = target: T1, human B7-H4 on cells (human, UniProt Q7Z7D3 25-282); assay: cell-based or functional assay
T1 sequence (looked up): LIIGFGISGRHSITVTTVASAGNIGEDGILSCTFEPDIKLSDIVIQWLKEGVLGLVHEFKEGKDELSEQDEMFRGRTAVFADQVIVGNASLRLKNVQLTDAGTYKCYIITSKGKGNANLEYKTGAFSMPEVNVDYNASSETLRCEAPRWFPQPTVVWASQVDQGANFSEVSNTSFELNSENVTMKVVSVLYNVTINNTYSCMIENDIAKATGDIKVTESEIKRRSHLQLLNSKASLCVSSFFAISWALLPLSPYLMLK

[1] = target: T2, human B7-H4 extracellular domain (human, UniProt Q7Z7D3 29-258); assay: SPR 25 C; bispecific on anti-hFc chip, ECD analyte
T2 construct: Soluble ECD used as SPR analyte; also called huB7-H4 ECD; huB7-H4
T2 sequence: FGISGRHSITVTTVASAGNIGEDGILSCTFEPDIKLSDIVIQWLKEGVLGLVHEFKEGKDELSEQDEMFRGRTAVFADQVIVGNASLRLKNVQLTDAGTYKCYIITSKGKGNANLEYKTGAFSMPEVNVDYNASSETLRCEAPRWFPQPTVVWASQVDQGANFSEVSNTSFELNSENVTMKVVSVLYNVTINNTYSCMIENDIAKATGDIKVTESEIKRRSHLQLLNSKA

[2] = target: T3, cyno B7-H4 extracellular domain (cyno, UniProt Q7Z7D3 29-258 (human entry)); assay: SPR 25 C; bispecific on anti-hFc chip, ECD analyte
T3 construct: Soluble ECD used as SPR analyte; also called cyB7-H4 ECD; cyB7-H4
T3 sequence: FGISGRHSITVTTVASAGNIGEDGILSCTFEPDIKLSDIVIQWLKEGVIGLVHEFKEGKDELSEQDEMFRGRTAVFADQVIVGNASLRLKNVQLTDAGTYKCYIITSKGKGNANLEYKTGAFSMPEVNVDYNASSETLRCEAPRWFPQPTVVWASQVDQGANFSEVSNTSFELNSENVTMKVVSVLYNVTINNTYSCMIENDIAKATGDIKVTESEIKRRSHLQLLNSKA

[3] = target: T4, mouse B7-H4 extracellular domain (mouse, UniProt Q7TSP5 29-258); assay: SPR 25 C; bispecific on anti-hFc chip, ECD analyte
T4 construct: Soluble ECD used as SPR analyte; also called muB7-H4 ECD; muB7-H4
T4 sequence: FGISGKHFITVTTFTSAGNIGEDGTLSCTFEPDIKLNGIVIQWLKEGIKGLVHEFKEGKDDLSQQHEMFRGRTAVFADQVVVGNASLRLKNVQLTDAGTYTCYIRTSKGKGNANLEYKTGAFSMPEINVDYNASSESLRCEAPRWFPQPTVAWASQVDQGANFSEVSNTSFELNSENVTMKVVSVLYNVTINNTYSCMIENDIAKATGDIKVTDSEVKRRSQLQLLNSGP

[4] = target: T2, human B7-H4 extracellular domain; assay: SPR 37 C; bispecific on anti-hFc chip, ECD analyte
[5] = target: T3, cyno B7-H4 extracellular domain; assay: SPR 37 C; bispecific on anti-hFc chip, ECD analyte
[6] = target: T2, human B7-H4 extracellular domain; assay: SPR 37 C; bispecific on anti-hFc chip, ECD analyte; remark: listed apart in the source
[7] = target: T3, cyno B7-H4 extracellular domain; assay: SPR 37 C; bispecific on anti-hFc chip, ECD analyte; remark: listed apart in the source
[8] = target: T4, mouse B7-H4 extracellular domain; assay: SPR 37 C; bispecific on anti-hFc chip, ECD analyte
[9] = target: T5, rat B7-H4 extracellular domain (rat, UniProt Q501W4 29-257); assay: SPR 37 C; bispecific on anti-hFc chip, ECD analyte
T5 construct: Soluble ECD used as SPR analyte; also called ratB7-H4 ECD
T5 sequence: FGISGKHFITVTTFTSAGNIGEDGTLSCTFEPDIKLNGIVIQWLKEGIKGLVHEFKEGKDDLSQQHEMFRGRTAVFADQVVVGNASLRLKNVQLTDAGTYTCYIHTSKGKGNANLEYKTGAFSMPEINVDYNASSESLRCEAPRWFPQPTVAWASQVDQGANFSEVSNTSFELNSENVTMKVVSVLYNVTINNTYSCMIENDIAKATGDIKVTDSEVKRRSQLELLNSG

[10] = target: T6, human CD3 (delta/epsilon heterodimer) (human, UniProt P07766 23-126; P04234 22-105); assay: SPR 25 C; CD3 delta/epsilon on anti-His chip, bispecific analyte
T6 construct: captured on an anti-His chip, so it carries a His tag; also called huCD3

[11] = target: T7, cyno CD3 (delta/epsilon heterodimer) (cyno, UniProt Q95LI5 22-117; Q95LI8 22-105); assay: as above
T7 construct: also called cyCD3

[12] = target: T6, human CD3 (delta/epsilon heterodimer); assay: SPR 37 C; CD3 delta/epsilon on anti-His chip, bispecific analyte
[13] = target: T7, cyno CD3 (delta/epsilon heterodimer); assay: as above
[14] = target: T2, human B7-H4 extracellular domain; assay: SPR 37 C; bispecific (IgG2 scaffold) on anti-hFc chip, ECD analyte
[15] = target: T6, human CD3 (delta/epsilon heterodimer); assay: SPR 37 C; CD3 delta/epsilon on anti-His chip, bispecific (IgG2 scaffold) analyte
[16] = target: T6, human CD3 (delta/epsilon heterodimer); assay: SPR 37 C; CD3 delta/epsilon on anti-His chip, bispecific analyte; CD3 variant 2B5v6

T6 sequence (P07766 23-126, stated change not applied, chain 1 of 2): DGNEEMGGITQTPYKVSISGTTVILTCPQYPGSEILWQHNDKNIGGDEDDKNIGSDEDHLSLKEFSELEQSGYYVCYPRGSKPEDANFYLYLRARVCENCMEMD
T6 sequence (P04234 22-105, stated change not applied, chain 2 of 2): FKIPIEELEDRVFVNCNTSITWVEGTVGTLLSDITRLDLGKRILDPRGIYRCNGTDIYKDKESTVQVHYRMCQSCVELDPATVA
T7 sequence (Q95LI5 22-117, stated change not applied, chain 1 of 2): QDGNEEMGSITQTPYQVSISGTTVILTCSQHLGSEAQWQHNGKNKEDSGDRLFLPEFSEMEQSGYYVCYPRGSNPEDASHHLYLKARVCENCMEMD
T7 sequence (Q95LI8 22-105, stated change not applied, chain 2 of 2): as the sequence (P04234 22-105, stated change not applied, chain 2 of 2) above, with I5V, N15K, I20V, S32T, D33N, I34N, T64A, S74N, V83L counted along it

- Kd [1]: 6.83 nM
- koff [1]: 0.0012 s⁻¹
- kon [1]: 176000 M⁻¹ s⁻¹
- Kd [2]: 9.29 nM
- koff [2]: 0.0012 s⁻¹
- kon [2]: 129000 M⁻¹ s⁻¹
- Kd [3]: 299 nM
- koff [3]: 0.0299 s⁻¹
- kon [3]: 100000 M⁻¹ s⁻¹
- Kd [4]: 21.9 nM
- koff [4]: 0.00602 s⁻¹
- kon [4]: 275000 M⁻¹ s⁻¹
- Kd [5]: 30.9 nM
- koff [5]: 0.00581 s⁻¹
- kon [5]: 188000 M⁻¹ s⁻¹
- Kd [6]: 8.86 nM
- koff [6]: 0.00509 s⁻¹
- kon [6]: 575000 M⁻¹ s⁻¹
- Kd [7]: 8.81 nM
- koff [7]: 0.00487 s⁻¹
- kon [7]: 553000 M⁻¹ s⁻¹
- Kd [8]: 776 nM
- koff [8]: 0.134 s⁻¹
- kon [8]: 173000 M⁻¹ s⁻¹
- Kd [9]: 1120 nM
- koff [9]: 0.131 s⁻¹
- kon [9]: 117000 M⁻¹ s⁻¹
- Kd [10]: 7.38 nM
- koff [10]: 0.00559 s⁻¹
- kon [10]: 758000 M⁻¹ s⁻¹
- Kd [11]: 8.33 nM
- koff [11]: 0.00534 s⁻¹
- kon [11]: 642000 M⁻¹ s⁻¹
- Kd [12]: 41.9 nM
- koff [12]: 0.0234 s⁻¹
- kon [12]: 558000 M⁻¹ s⁻¹
- Kd [13]: 47.1 nM
- koff [13]: 0.0239 s⁻¹
- kon [13]: 507000 M⁻¹ s⁻¹
- Kd [14]: 18.2 nM
- koff [14]: 0.00582 s⁻¹
- kon [14]: 319000 M⁻¹ s⁻¹
- Kd [15]: 56.9 nM
- koff [15]: 0.0336 s⁻¹
- kon [15]: 592000 M⁻¹ s⁻¹
- Kd [16]: 56.9 nM
- koff [16]: 0.0336 s⁻¹
- kon [16]: 592000 M⁻¹ s⁻¹
B1: B7-H4xCD3 bispecific antibody 0074 (bispecific antibody, IgG2)
heavy 1: QVQLQQWGAGLLKPSETLSLTCAVYGGSFSGYYWNWIRQPPGKGLEWIGEINHSGSTKYNPSLKSRVTISGDTSKNQFSLKLNSVTAADTAVYYCVRGLYNWNVDSWGQGTLVTVSSASTKGPSVFPLAPCSRSTSESTAALGCLVKDYFPEPVTVSWNSGALTSGVHTFPAVLQSSGLYSLSSVVTVPSSNFGTQTYTCNVDHKPSNTKVDKTVERKCEVECPECPAPPVAGPSVFLFPPKPKDTLMISRTPEVTCVVVAVSHEDPEVQFNWYVDGVEVHNAKTKPREEQFNSTFRVVSVLTVVHQDWLNGKEYKCKVSNKGLPSSIEKTISKTKGQPREPQVYTLPPSREEMTKNQVSLTCEVKGFYPSDIAVEWESNGQPENNYKTTPPMLDSDGSFFLYSKLTVDKSRWQQGNVFSCSVMHEALHNHYTQKSLSLSPGK
light 1: DIQMTQSPSSLSASVGDRVTITCRASQGIRNDLGWYQQKPGKAPKRLIYVASSLQSGVPSRFSGSGSGTEFTLTISSLQPEDFATYYCLQHNSYPYTFGQGTKLEIKRTVAAPSVFIFPPSDEQLKSGTASVVCLLNNFYPREAKVQWKVDNALQSGNSQESVTEQDSKDSTYSLSSTLTLSKADYEKHKVYACEVTHQGLSSPVTKSFNRGEC
heavy 2: EVQLVESGGGLVQPGGSLRLSCAASGFTFSDYYMTWVRQAPGKGLEWVAFIRNQARGYTSDHNPSVKGRFTISRDNAKNSLYLQMNSLRAEDTAVYYCARDRPSYYVLDYWGQGTTVTVSSASTKGPSVFPLAPCSRSTSESTAALGCLVKDYFPEPVTVSWNSGALTSGVHTFPAVLQSSGLYSLSSVVTVPSSNFGTQTYTCNVDHKPSNTKVDKTVERKCRVRCPRCPAPPVAGPSVFLFPPKPKDTLMISRTPEVTCVVVAVSHEDPEVQFNWYVDGVEVHNAKTKPREEQFNSTFRVVSVLTVVHQDWLNGKEYKCKVSNKGLPSSIEKTISKTKGQPREPQVYTLPPSREEMTKNQVSLTCLVKGFYPSDIAVEWESNGQPENNYKTTPPMLDSDGSFFLYSRLTVDKSRWQQGNVFSCSVMHEALHNHYTQKSLSLSPGK
light 2: DIQMTQSPSSLSASVGDRVTITCTSSQSLFNVRSQKNYLAWYQQKPGKAPKLLIYWASTRESGVPSRFSGSGSGTDFTLTISSLQPEDFATYYCKQSYDLFTFGGGTKVEIKRTVAAPSVFIFPPSDEQLKSGTASVVCLLNNFYPREAKVQWKVDNALQSGNSQESVTEQDSKDSTYSLSSTLTLSKADYEKHKVYACEVTHQGLSSPVTKSFNRGEC
notes: Chains 1-2: B7-H4 arm; chains 3-4: CD3 arm; IgG2 EEE/RRR; also called anti-B7-H4 clone 28D10; CD3 variant 2B5v6
- T cell mediated tumor cell killing EC50, HCC1954-Luc (human B7-H4 on cells): 73 nM
- T cell mediated tumor cell killing, MDA-MB-468 (human B7-H4 on cells): 42
- T cell mediated tumor cell killing, OVCAR3-Luc (human B7-H4 on cells): 31
- T cell mediated tumor cell killing, T47D (human B7-H4 on cells): 224
